Several values for one entry are separate records, joined by “and”; a condition that tells them apart may be missing. Identical values can stand only once.
B1: E2E8: dGAE (391E) specific clone, Table 9; SEQ ID NO: 248 (protein)
scFv: QVQLQESGPSLVKPSQTLSLTCTVSGFSLTDRGVAWVRQAPGKALEWVGTMRSGGTIDYNPALKSRLSITRDTSKSQVFLSLSSVTTEDMAMYYCARGYLSGDRYAWGRGLLVTVSSEGKSSGASGESKVDDQAVLTQPSSVSKSLGQSVSIACSGSRSDIGYGNYVSWFQQIPGSAPKLLIYDTNTRASGVPDRFSGARSGNTATLTINSLQAEDEADYYCANIDSSRSHLFGSGTRLTVLG
modifications: E2E8 amino acid sequence
B2: CB7: human-specific N-terminal anti-tau clone, Table 10; SEQ ID NO: 364 (protein)
scFv: QVQLQESGPSLVKPSQTLSLTCTVSGFSLTNYRVGWVRQAPGKALEWVSNIRSGGTTWYNPALKSRLSITADTSKSQVSLSLSSVTTEDTAVYYCARDSSGDLYAYDYWGPGLLVTVSSEGKSSGASGESKVDDQAVLTQPSSVSRSLGQSVSMTCSGSSSNVGYGNYMAWFQQVPGSAPKLLIYGATSRASGVPDRFSGSRSGNTATLTISSLQAEDEADYYCASYDSTSGGVFGSGTRLTVLG
modifications: CB7 amino acid sequence
B3: E2E8 mAb: E2E8 reformatted; heavy chain SEQ ID NO: 493, light chain 494 (antibody)
heavy: QVQLQESGPSLVKPSQTLSLTCTVSGFSLTDRGVAWVRQAPGKALEWVGTMRSGGTIDYNPALKSRLSITRDTSKSQVFLSLSSVTTEDMAMYYCARGYLSGDRYAWGRGLLVTVSSAKTTAPSVYPLAPVCGDTTGSSVTLGCLVKGYFPEPVTLTWNSGSLSSGVHTFPAVLQSDLYTLSSSVTVTSSTWPSQSITCNVAHPASSTKVDKKIEPRGPTIKPCPPCKCPAPNLLGGPSVFIFPPKIKDVLMISLSPIVTCVVVDVSEDDPDVQISWFVNNVEVHTAQTQTHREDYNSTLRVVSALPIQHQDWMSGKEFKCKVNNKDLPAPIERTISKPKGSVRAPQVYVLPPPEEEMTKKQVTLTCMVTDFMPEDIYVEWTNNGKTELNYKNTEPVLDSDGSYFMYSKLRVEKKNWVERNSYSCSVVHEGLHNHHTTKSFSRTPGK
light: QAVLTQPSSVSKSLGQSVSIACSGSRSDIGYGNYVSWFQQIPGSAPKLLIYDTNTRASGVPDRFSGARSGNTATLTINSLQAEDEADYYCANIDSSRSHLFGSGTRLTVLGGQPKSSPSVTLFPPSSEELETNKATLVCTITDFYPGVVTVDWKVDGTPVTQGMETTQPSKQSNNKYMASSYLTLTARAWERHSSYSCQVTHEGHTVEKSLSRADCS
modifications: E2E8 mAB Heavy Chain; E2E8 mAB Light Chain

Key:
[1] = target: T1, hT40 (T441, SEQ ID NO: 1) (Homo sapiens, UniProt P10636); assay: Biacore X100 SPR kinetics of scAbs for hT40; type: binding
T1 construct: Full length tau (hT40)
Outline: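 Captured scAb on anti-HuCk CM5 surface (flow cell 1 as reference) in HBS-EP+, capture set for theoretical RMax 100 RU; hT40 injected multi-cycle (0.15625–100 nM) or single-cycle (6.25–100 nM), 120 s association, 420 s dissociation, glycine pH 2.0 regeneration. Kinetics and affinity from 1:1 binding model fit.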

[2] = system: 13 aa tau peptides of hT40; assay: Alanine scanning mutagenesis (ASM) peptide ELISA; type: binding, human; conditions: alanine substituted peptides; numbering SEQ ID NO: 1
Description: Briefly, 5 μg/ml streptavidin (Thermo Fisher) was adsorbed to Nunc 96-well MaxiSorp plates and following incubation at 37° C. for 1 h, the plates were washed as normal and blocked with 2% MPBS. N-terminally biotinylated peptides (Prolmmune Ltd) were added to the plates and incubated for 1 h at 37° C. Subsequently, test scAbs at starting concentrations of 100-500 nM was added and double diluted across the plate for each peptide and incubated for 1 h at 37° C. Rest of the ELISA was conducted as described above and the plates were read at absorbance 450 nm. Immunoreactivity of the scAb of interest was quantified as the % of scAb was bound for each peptide at a chosen concentration (FIG. 15-20).

[3] = system: hT40, dGA, dGAE and truncated tau fragments; assay: Binding ELISA / epitope mapping of anti-tau scAbs with truncated tau proteins and 13mer peptides; design: species or system human; conditions: for Tau proteins/fragments with positive scAb reactivity: binding ELISA; for Detection scAb (Epitope): Table 28 (LoD table)
Outline: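 Plates coated with 1 μg/ml tau protein, or 5 μg/ml streptavidin then 1 μg/ml biotinylated 13mer peptide; blocked with 2% MPBS. scAbs added at a starting concentration and double-diluted. Bound scAb detected with HRP anti-human C kappa and read as absorbance.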

dGAE (SEQ ID NO: 4) = dGAE (SEQ ID NO: 4) (Homo sapiens, UniProt P10636); assay: Biacore X100 SPR kinetics of scAbs for dGAE; type: binding; conditions: Table 24, scAb, dGAE analyte
Description: Surface plasmon resonance (SPR) is widely regarded as the gold standard for real time measurement of protein-protein interactions such as antibody binding. All SPR experiments were carried out using a Biacore X100 machine and HBS EP+ running buffer (GE Healthcare). A ‘capture’ method was followed for affinity measurements, where an anti-human constant kappa chain (HuCk) antibody was conjugated to the surface of a CM5 sensor chip using an amine coupling kit and scAb molecules were immobilised via their HuCk domain. Amine coupling is a very common approach for immobilising the ligand to the chip surface. The chip surface has a dextran matrix derivatised with carboxyl groups, which after activation with N-hydroxysuccinimide (NHS) and 1-ethyl-3-(3-dimethylaminopropyl) carbodiimide (EDC), form reactive succinimide esters which allows the covalent capturing of the ligand via any available primary amine groups (e.g. Lysine) on the ligand (in this case anti-HuCk antibody). The capture antibody was diluted 1/100 in 10 mM Sodium acetate buffer pH 5.0 and passed over the activated chip surface for a period of at least 420 s. Final ligand immobilisation levels over 12,000 RU were deemed to be satisfactory.
Following immobilisation, the level of each scAb to be captured was identified using the standard SPR equation with a theoretical RMax of 100 RU. Analyte MW refers to the molecular weight of hT40 or dGA/dGAE molecules, while ligand MW refers to the molecular weight of the scAbs tested. RL is the desired capture level and S refers to the stoichiometric ratio:
The scAb to be tested was added only to flow cell 2 so that flow cell 1 could act as a control to subtract any interaction with the analyte and the chip surface. Both single and multi-cycle runs were utilised using wizards developed in the Biacore X100 control software which are both accepted methods of kinetic analysis (Karlsson, R., et al. Analyzing a kinetic titration series using affinity biosensors (2006) Analytical Biochemistry 349:136-47). The multi-cycle protocol was as follows-Three start-up cycles composed of an initial capture, to the desired level, of the scAb to be tested was performed followed by a 30 s injection of glycine buffer pH 2.0 after each cycle to regenerate the chip surface. The regeneration step removed any captured scAb whilst leaving the capture antibody intact and able to repeat the capture for the next cycle. […]
The single cycle kinetics protocol was similar and utilised the same level of scAb capture. […] Binding responses were analysed in Biacore X100 evaluation software and data fitted to a 1:1 binding model to obtain kinetic and affinity characterisation.

htau40 = target: T2, htau40 (Homo sapiens, UniProt P10636); assay: Biacore X100 SPR kinetics of anti-tau mAbs on immobilised htau40; type: binding; conditions: Table 27; mAb format, immobilised htau40
T2 construct: Full length tau (hT40)
Outline: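 Htau40 amine-coupled to CM5 chip (~250 RU, pH 4.0 immobilisation), reference flow cell subtracted; mAb injected at 0.78–25 nM in HBS-EP+, 120 s association, 600 s dissociation, glycine pH 1.5 regeneration. Kinetic and affinity constants from 1:1 binding model fit.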

[4] = system: tau fragments in plasma of WT, L1 and L66 mice; assay: Capture ELISA on transgenic mouse plasma; conditions: Line66 transgenic model
Description: Plasma samples from WT, L1, L66+/− and L66+/+ of various ages (1.5-9 months) were taken as described. Mice were terminally anaesthetized using an overdose of sodium pentobarbital and blood was collected through cardiac puncture through a Plastipak syringe pre-rinsed with heparinised saline heparin (10 U/ml) (Heparin sodium salt; Sigma-Aldrich) and transferred into a plastic vial containing lithium heparin anticoagulant (Sarstedt Ltd.) Blood samples, kept on ice for no more than 30 minutes, were centrifuged to obtain plasma at 2000× g for 5 minutes at 6° C. Plasma samples were stored at −20° C.
For mouse plasma capture ELISA, 100 μL capture mAb was coated to the bottom of a black nunc 96 well ‘maxisorp’ plate at 2.5 μg/ml and incubated for 1 hour at 37° C. After washing and blocking as normal, several known standard solutions were set up in triplicate starting at 20 ng/ml of the desired protein before double diluted in the remaining wells. Mouse samples were added to wells in duplicate with a blank in between each sample group. Line1 plasma was diluted 1:10 before addition to plate to account for its high concentration while other samples were diluted 1:2 to account for potential matrix effects. […] The ELISA was developed using SuperSignal ELISA Femto Substrate (Thermo Scientific) and total luminescence was read on Clariostar Plus plate reader (BMG Labtech). […]

aggregated dGAE = aggregated dGAE (Homo sapiens, UniProt P10636); assay: Capture ELISA ranking mAbs for capture of dGAE aggregates; type: binding; conditions: capture mAb 1 μg/ml; 800 nM aggregated dGAE
Description: The aggregation cascade of natively unfolded tau into insoluble filaments is a defining pathological feature of AD. Therefore, it is logical to target aggregated tau filaments for both therapeutic and diagnostic purposes. The following experiment was performed to assess the ability of our dGA mAb panel to bind aggregated dGAE using a capture ELISA method. Aggregates were prepared by incubating 100 μM dGAE and 10 mM dTT for 24 h at 37° C. with shaking at 700 RPM. The following day, dGAE aggregates were centrifuged at 17,000×g for 20 min and the supernatant was removed. The remaining pellet was washed with 10 mM phosphate buffer and centrifuged as above. Washing was repeated a further two times to remove any remaining dGAE monomer. The dGAE pellet was resuspended in 100 μl of 10 mM phosphate buffer. (Using a separate capture ELISA based quantification, we have worked out the efficiency of our dGAE aggregation as 80%)
Following washing, 800 nM aggregated dGAE was added to the designated wells, double diluted across the plate and incubated for 1 h at RT. The plate was washed again and 1 μg/ml S1G2 scAb was added as detection antibody and incubated for 1 h at RT. To the row where S1G2 mAb was used for capture, […] s1D12 scAb was added as […] instead of S1G2. The assay was developed using HRP labelled HuCK as described previously.

[5] = Table 26 summary, top scAbs, residues of hT40
[6] = Table 23, scAb captured, T441 (hT40) analyte, 1:1 model

T1 sequence (P10636 1-441 isoform P10636-8): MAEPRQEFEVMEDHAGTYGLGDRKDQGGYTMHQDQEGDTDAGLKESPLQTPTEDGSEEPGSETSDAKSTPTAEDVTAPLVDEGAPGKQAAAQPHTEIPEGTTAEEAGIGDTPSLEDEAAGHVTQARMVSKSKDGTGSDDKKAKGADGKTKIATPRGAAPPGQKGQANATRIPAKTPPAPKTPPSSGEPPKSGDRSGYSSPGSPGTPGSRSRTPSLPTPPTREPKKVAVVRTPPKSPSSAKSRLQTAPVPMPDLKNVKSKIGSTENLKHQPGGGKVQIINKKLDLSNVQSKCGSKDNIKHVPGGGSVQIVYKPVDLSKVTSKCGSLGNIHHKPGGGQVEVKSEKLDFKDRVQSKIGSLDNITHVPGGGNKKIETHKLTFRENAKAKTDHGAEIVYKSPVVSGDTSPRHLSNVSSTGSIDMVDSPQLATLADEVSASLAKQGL
Chain of dGAE (SEQ ID NO: 4) (P10636 614-708): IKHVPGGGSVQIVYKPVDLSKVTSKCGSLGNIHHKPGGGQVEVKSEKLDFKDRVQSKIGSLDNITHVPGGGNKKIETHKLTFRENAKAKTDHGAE
T2 sequence (P10636 1-441 isoform P10636-8): as the sequence (P10636 1-441 isoform P10636-8) above
Chain of aggregated dGAE (P10636 614-708): as the sequence (P10636 614-708) above

Row | Molecule | T441 binding in SPR (result in words) ([1]; Table 23, scAb format) | hT40 binding (result in words) ([1]; Table 26 summary, scAb format) | critical binding residues [2] | cross-reactivity using hT40, dGA and dGAE antigens ([3]; ELISA, 'E' group scAbs) | Tau proteins/fragments with positive scAb reactivity ([3]; Table 15, residue numbers of hT40) | Epitope [3, 5] | Detection scAb (Epitope) ([3]; residues of hT40) | ka (dGAE (SEQ ID NO: 4)) [M⁻¹ s⁻¹] | Kd (dGAE (SEQ ID NO: 4); dissociation rate) [s⁻¹] | ka [1, 6] [M⁻¹ s⁻¹] | kd [1, 6] [s⁻¹] | ka (htau40) [M⁻¹ s⁻¹] | kd (htau40) [s⁻¹] | cross reaction with endogenous mouse tau [4] | Tau proteins/fragments with positive scAb reactivity ([3]; Table 17, 'C' group scAbs) | Shortest region bound on hT40 ([3]; Table 17, 'C' group scAbs, incl. 13mer peptides) | binding region on hT40 ([3]; amino acid residues of hT40) | Epitope ([3]; residue numbers of SEQ ID NO: 1 (hT40), CDR Tables 1-11) | Binding region hT40 ([3]; second Table 26, own antibodies) | ability to capture dGAE aggregates (aggregated dGAE)
1 | B1 | No T441 binding | No hT40 binding | 391 (E) | specific dGAE binding | 297-391 (dGAE) | 391 | E2E8 (E dependant) | 477000 | 0.0001915 | – | – | – | – | – | – | – | – | – | – | –
2 | B2 | – | – | – | – | – | 13-25 | CB7 (13-25) | – | – | 133400 | 0.0006936 | 2.568e+06 | 0.009451 | does not cross react with endogenous mouse tau protein | hT40, 1-49, 1-155, 1-319 | 13-25 | 13-25 and 13-26 | 13-25 | (Binding region hT40 13-25) | –
3 | B3 | – | – | – | – | – | – | – | – | – | – | – | – | – | – | – | – | – | – | – | most efficient at capturing aggregated dGAE
